Seven molecules from publication PMC2932737, “DNA Clasping by Mtb HU” can be followed below.

Series [1] addresses HupBMtb (HU, MDP-1, HLPMt) (Mycobacterium tuberculosis H37Rv) (UniProt P9WMK7). Description: agarose EMSA. Conditions: scale: fold higher affinity than for linear pBSK.
Series [2] has the same target. Kind of series: EMSA. (A gel shift assay detects complexes by their altered migration in electrophoresis.)
The target of series [3] is T1, HupBMtb (HU, MDP-1, HLPMt) (Mycobacterium tuberculosis H37Rv, UniProt P9WMK7 3-216). Description: EMSA; 0-300 nM protein; negligible. Conditions: protein: recombinant; tags: His (pET28a, NdeI/HindIII); chain copies: 2; label: 5' 32P; blunt.
Series [4] has as its target T2, HupBMtbN (Mycobacterium tuberculosis H37Rv, UniProt P9WMK7 3-97). Description: EMSA; 10 mM KCl. Conditions: protein: recombinant, tags: His (pET28a, NdeI/HindIII), chain copies: 2, label: 5' 32P, blunt.
Series [5] addresses T1, HupBMtb (HU, MDP-1, HLPMt). Kind of series: EMSA; 200 mM KCl. Conditions: protein: recombinant, tags: His (pET28a, NdeI/HindIII), chain copies: 2, label: 5' 32P, blunt.
For series [6], the target named is T1, HupBMtb (HU, MDP-1, HLPMt). Description: EMSA; 10 mM KCl. Conditions: protein: recombinant, tags: His (pET28a, NdeI/HindIII), chain copies: 2, label: 5' 32P, blunt.
Series [7] concerns the target T1, HupBMtb (HU, MDP-1, HLPMt). Kind of series: EMSA; 0-300 nM protein; two complexes. Conditions: protein: recombinant; tags: His (pET28a, NdeI/HindIII); chain copies: 2; label: 5' 32P; blunt.
In series [8] the target is T2, HupBMtbN. Kind of series: EMSA; 0-300 nM protein; single complex. Conditions: protein: recombinant; tags: His (pET28a, NdeI/HindIII); chain copies: 2; label: 5' 32P; blunt.
Where [9] appears, read: 48 bp duplex with nick in the lower strand.
Where [10] appears, read: duplex with 1 nt gap in the lower strand.
The mark [11] stands for this setting: duplex with 2 nt gap in the lower strand.

For orientation: Kd means a measure of binding affinity in units of concentration.

T1 sequence (P9WMK7 3-216): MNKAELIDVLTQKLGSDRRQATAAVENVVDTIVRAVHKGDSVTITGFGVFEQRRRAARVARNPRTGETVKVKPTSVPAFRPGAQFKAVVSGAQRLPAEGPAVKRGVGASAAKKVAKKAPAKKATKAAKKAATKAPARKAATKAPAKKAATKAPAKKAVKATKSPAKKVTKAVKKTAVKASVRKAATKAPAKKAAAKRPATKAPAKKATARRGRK
T2 sequence (P9WMK7 3-97): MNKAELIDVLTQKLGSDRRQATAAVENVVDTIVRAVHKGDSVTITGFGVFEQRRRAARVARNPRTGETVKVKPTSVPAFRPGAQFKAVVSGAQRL
Chain of HupBMtb (HU, MDP-1, HLPMt) (Mycobacterium tuberculosis H37Rv) (P9WMK7 3-216): as the sequence (P9WMK7 3-216) above

The molecule pBluescript SK supercoiled had a binding signal in series [1] of 1.5. Turning to “CTCTGTGACTGGTGTGACCTGGGAGAGAGAAGTTTTTTTAAGAACGTT (double strand) [A1 ds DNA (SH_1+SH_2)]”, the Kd in series [2] came out at 42 nM.

B1: A6 84% GC DNA (SH_10+SH_11) (dsDNA)
DNA 1: GCCCGGCTGCACCGCGCCACCGCGG
DNA 2: CCGCGGTGGCGCGGTGCAGCCGGGC
Turning to B1, the binding result in series [3] was “no binding”.

B2: A2 nick DNA (SH_1+SH_3+SH_4) (structured_DNA)
DNA 1: CTCTGTGACTGGTGTGACCTGGGAGAGAGAAGTTTTTTTAAGAACGTT
DNA 2: TCCCAGGTCACACCAGTCACAGAG
DNA 3: AACGTTCTTAAAAAAACTTCTCTC
With B2, the results for the dissociation constant Kd (with HupBMtbN [4] (setting [9]); in series [5] (setting [9])) were 1000 nM and 65 nM, respectively.

B3: A3 1-nt gap DNA (SH_1+SH_3+SH_5) (structured_DNA)
DNA 1: CTCTGTGACTGGTGTGACCTGGGAGAGAGAAGTTTTTTTAAGAACGTT
DNA 2: TCCCAGGTCACACCAGTCACAGAG
DNA 3: AACGTTCTTAAAAAAACTTCTCT
Take B3: the Kd amounted to 725 nM with HupBMtbN [4] (setting [10]) and 55 nM in series [6] (setting [10]).

B4: A4 2-nt gap DNA (SH_1+SH_3+SH_6) (structured_DNA)
DNA 1: CTCTGTGACTGGTGTGACCTGGGAGAGAGAAGTTTTTTTAAGAACGTT
DNA 2: TCCCAGGTCACACCAGTCACAGAG
DNA 3: AACGTTCTTAAAAAAACTTCTC
B4: the figures for the Kd (with HupBMtbN [4] (setting [11]); in series [6] (setting [11]); in series [5] (setting [11])) were 536 nM, 60 nM and 88 nM, respectively.

B5: A7 64% AT DNA (SH_12+SH_13) (dsDNA)
DNA 1: TCAAATCTAATCGGAGTCGTTTTGA
DNA 2: TCAAAACGACTCCGATTAGATTTGA
As for B5, the binding result (in series [7]; with HupBMtbN [8]) was “binds” throughout.
